Sequences and labels used below:
B1: Humanin (Homo sapiens), Q8IVG9 (parent)
chain: MAPRGFSCLLLLTSEIDLPVKRRA

In the assay the parent is B1. As to conditions: with bax_human BAX.
MAPRGFSPLLLLTSEIDLPVKRRA [C8P]: the “effect of a mutation on the interaction” value is “disrupting interaction strength”.

Values taken from IntAct's records for PubMed 12732850.
